Drawing on doi:10.1101/2020.04.18.045682, this text covers stoichiometry N for four substances.

Usually stoichiometry N stands for the number of molecules, sites or subunits per partner or assembly.

Test [1] deals with Cas10d (Synechocystis sp. PCC 6803). Briefly: affinity purification with mass spectrometry.
Test [2] deals with type I-D Cascade lacking Cas11d (Synechocystis sp. PCC 6803). Nature of the test: negative-stain electron microscopy, 3D reconstruction.

With Cas6d (natural protein), the stoichiometry N in test [1] was 1. In turn, Cas5d (natural protein) showed a stoichiometry N in test [1] of 1. With Cas11d (natural protein), the stoichiometry N in test [2] and in test [1] was 2 in each case. Consider Cas7d (natural protein), for which the stoichiometry N in test [1] was found to be 6.
